In the DeepSol protein solubility set:

Assay: soluble on expression in E. coli; label from the status in PepcDB or PDB records

Row | Sequence | soluble on expression in E. coli
1 | MGSDKIHHHHHHMDTLTRIRAFIDVVEAEGFSAAARKTGRSKALLSKYVRELEDELGALLLNRTTRQFSMTEAGHTYYRSAADILKEIDNLADLVRENNVGISGKIRITVPRSFTDAEVGQSLIDFALQHPDLSIEIVAEDRFVDLIEEGFDLAIRVTKLEDSGMIARKLADFRSYACASPVFLEKYGPLTHPQDLSKVPVLIDTNTRGHNSLRLRQPDGEAFTVNISGPLEVNSPQTTLRGALSGLGIALLPDFVARRHIESGALISIFEDYMPSGSGIYAVYPHRRYLPAKVRALVDFMHNWFKRNGTCQPKQGTPPSE | not soluble
2 | MAAEIKQGDHKFYVGDDENNPKAVITFKEVDNNEIDIDHTGVSDELGGQGLGKKLVNRVVEHARENNLKIIASCPFAKNVLEKDDHAQDVYLGLEHHHHHH | soluble
3 | MTLPTTIYSFPAYLSRFSSTDKPVKLKFHQYARATLLSNRGRDHNCDGRRTVEIHKLDLSDWQAFNKLATRCNAYDGITMNGDNSFGWNHEATLDNIHAQKYNKAYAGARLTAELKYLLQDVESFEPNSKYTIHEVVLGPGYGTPDYTGQTIGYVVTLPAQMPNCWSSELPTIDLYIDQLRTVTGVSNALGFIIAALLNAYSDLPHDLKIGLRSLSSSAAIYSGLGFERVPQERDISCARMYLTPANHPDLWTQENGEWIYLRN | not soluble
4 | MSLTDDEISSTETAPDIATQPPLFVLGVGAARLDAGRLAELLDAVAGAANLAIMLLLRDRQLLDEAHLRALLGKQATLLSVPFDGEKLQPGRFYLPPADTVVTLEEGRIRLRALPNGESDHGLIDSFFVSMAHDQDGNVIGLIMGRFDGDGTLGTAAIKECGGLALAVDDASLHGLDLRSASNPAAITDHILPLPQLTARIAAHMQRHHGFGHPGPLGVRNGSESDKLSQIAAILRNTTGHDFHGYKRATFLRRVQQRMQVAQVEMLEQYLHILRYRFDEPLQLFNDLLIGVTKFFRDRRGFELLEQQVIPRLFKGKHTDDSMRVWVLGCSTGEEAYSLAMLLREHAETLDSAPRIQIFASDIDGRALATARVGRYASSIVGEVALERLRRWFVKEGDTYVVNKELRELCVFSQHSIVKDPPFSRLDLVSCRNLLIYLDAELQNRVIPIFHFAIRPGGYLFLGNAENVSLQAQLFTPVDRSVRVFQREGHHHHHH | not soluble
5 | MGSDKIHHHHHHMTDTISYQYAAPSVLQRSSDQDELFLAKYSEIEKKEAPCFFWGKLTQPYMTARCLIALSNVVQSSFNLTPAQLSMLKDPIVTAGNERLRFEGFSNCAGVYARVDVLPDGHDGEFLENGTTNVDFNAGMISALGSISKQEKVVMSVGPKEVGLYNKGEKVIERKVPLPVKWIKGLTTVQIYQSVAERMYSFNRIQTLQLFQTLPKGTVKCDYYLVMRGQKPAFSPVKSLNAVCIGGVHRLRLLEPLLPFADELRVFVHPTMQSTIWQLYFGPVRFSLSLSRECWRGFSGEGAALDALLEDVPEKWIAAMDKYSYANQQFNPTLFAIEEHIDLDKVDSLSARLAAMGLLGFDLDDNSFFYRRLPFKTERILSLNPRMIAAEKLLEEEKVEIISNDGNRTEARVAGSGGVRHTVILDRESEKERCTCTWFSGNQGERGACKHILAVKKRVQWKN | not soluble
6 | MGSDKIHHHHHHMSDSEKEILKRIKDNPFISQRELAEAIGLSRPSVANIISGLIQKEYVMGKAYVLNEDYPIVCIGAANVDRKFYVHKDLVAETSNPVTSTRSIGGVARNIAENLGRLGETVAFLSASGQDSEWEMIKRLSTPFMNLDHVQQFENASTGSYTALISKEGDMTYGLADMEVFDYITPEFLIKRSHLLKKAKCIIVDLNLGKEALNFLCAYTTKHQIKLVITTVSSPKMKNMPDSLHAIDWIITNKDETETYLNLKIESTDDLKIAAKRWNDLGVKNVIVTNGVKELIYRSGEEEIIKSVMPSNSVKDVTGAGDSFCAAVVYSWLNGMSTEDILIAGMVNAKKTIETKYTVRQNLDQQQLYHDMEDYKNGKFTKVY | not soluble
7 | MGHHHHHHGGHMSLTVPDFQAFMRPMLEQISSGEPQKIAELYRRLAEFFALTPQDTEELLPSGKQAKYHNRILWAKFHLDRAGVLTTPSRGVVQITPLGREFLSRYPEHIGMRELQTIPAYAEFTRRSRSPAQSPAPAAPPQAECSASVPPAEQIDALYAELTANLAEELLAQVKELSPAQFERLVVEVLVAMGYGGSVRDAGQALGRSGDNGIDGLIKQDPLGLDRIYLQAKRWKNTVHSPEIRTFSGSLTYHKATKGVFITTSGFSDGAKATAGQIGNIILLDGETLAHLMIEYGVGVLTRETYQIRRLDADYFEELEGGS | soluble
8 | MAHHHHHHMWRLRSPGPCAGHVARPAAFTACRVVVGSSGATSADAASFRTTSAGAALVVAHRRKSYHFFMNLDDPDATRRRIEEDLDRLASDEKKDTTAYLHSLLNLALSHYQRGDFISARDMADYTHQKALVHNSKSSLIYFTATTCAHCAEALAKEYEAHLQRKDEQSHVSATLTPEPSVVFSARRAIKKLRADAERYRGIAHRVYHRPDMAFMRGSGGGGSGRWRSSARHAEGRDTRHTWADDSSNNGVDEDYIPHMYGPRWQDRRKRPEHAEMKHYYKHQCGTSPSSRGKTQWNVPK | not soluble
9 | MSILEQVQPIETMLPERYYTMSTEDMEKRVREIKEKMGKMLFIPGHHYQKDEVVQFSDAVGDSLQLAQVAASNKDAKYIVFCGVHFMAETADMLTTDDQVVILPDMRAGCSMADMADIEQTERAWKELTKLFGDTMIPLTYVNSTAAIKAFCGRNGGATVTSSNAKQMVSWAFTQKERLVFLPDQHLGRNTAYDLGIPLDKMAVWDPHTDSLEYDGDIEEIQVILWKGHCSVHQNFTVKNIESVRKNHSDMNIIVHPECCYEVVAASDYAGSTKYIIDMIESAPPGSKWAIGTEMNLVNRIIQQHPDKEIVSLNPFMCPCLTMNRIDLPHLLWALETIERGEEINVISVDKQVTAEAVLALNRMLERV | not soluble
10 | ASPIGEGTFDDGPEGWVAYGTDGPLDTSTGALCVAVPAGSAQYGVGVVLNGVAIEEGTTYTLRYTATASTDVTVRALVGQNGAPYGTVLDTSPALTSEPRQVTETFTASATYPATPAADDPEGQIAFQLGGFSADAWTLCLDDVALDSEVEL | soluble
11 | MSLSERTYFPPAEEGELSKVESFLAVYKDRHGTEARPQFFLSGSNEGEQIPLPKELYEILVRTVEALASGKAVTIHPNDPLVTTQQAAELLGVSRPTVVKLIEDGKLEATKVTRHRRIKLEDVLRYQERQTIEQLDFLASTTSDAPALTESEYVSVRKMLANKRKESRIG | not soluble
12 | GEVRNIVDKTASFVARNGPEFEARIRQNEINNPKFNFLNPNDPYHAYYRHKVSEFKEGKAQEPS | soluble
13 | MSVLRRLTWLAFPLLSMAFNVQANTAPAQLNKAELEQRFAKLGLQVEEIKTSDINGLLEVQTSGGVLFSSPDGEHFIAGTLYALDGNGGYVDVLAKRQAPLNAKKIAALQDSMIEFKAPNEKYAITVFTDITCGYCVRLHSQIKEYNDLGITVRYLAYPRQGPQGQVADQMAAIWCSNDPKAAMHDAKVNRKTITADKDIAQCQKTIAQHYMLGHELGISGTPAIFLPNGEMVGGYLPAPQLLQRLQATQ | not soluble
14 | MGSDKIHHHHHHMRITEMADRVSRTGIGKLAGASHQLHTLNTNERDNSAMAETSIEWTDATWNPVAGCTILTAGCTNCYAMRMAARLEAMGTEKYQGLTRKTGGRAKWTGKVVTDPKSLAIPATWSKPRRVFVNSMSDLFHVDVPADFIRQVWTVMEETPRHTYQILTKRPEVMASVLTRGEFPVLSNVWLGTSVEDSRVLSRLDDLRRVPASIRFVSLEPLIGSVAGANLTDINWAIVGGESGPGARDMDPRWVDEIEAMCRRSGTAFFFKQWGGRNKKATGRTLNGRTYDEMPAAI | not soluble
15 | MKLEASLKHFSPQGMHISDSVKETSPDRLTGTDIMVAIGTTSSRARFGLAAFFGKAGISKTDEQLAVQALVRHAMDTAPKNVRKAAGGEFGWCMLVLAQFAFAEYSRSAATSVTCHTCKGSGRITRTQTTRKVSYPWGKAPYWASKSRAVRPSDWEKWTEVTEIVPAVCEACDGKGTISARCRCGGKGEVLDRIATKERGVPVFKTCERCSGEGYSRVSSATVHRAILKRLPDLHQSSWSRNWKPFYEMLVDVLYKGERQAASEFEKATAY | not soluble
